Substrate in the data set: Nc1ncnc2c1ncn2[C@@H]1O[C@H](COP(=O)(O)OP(=O)(O)OP(=O)(O)O)[C@@H](O)[C@H]1O
Kind of data set: Km [ATP] by ADP-Glo lipid kinase assay with PIP2:PS substrate. The conditions noted are these: MgCl2. The format is biochemical, Homo sapiens. (In general: ADP-Glo first removes unused ATP, then detects ADP through luciferase.)

B1: p110β (Homo sapiens) (protein)
chain: MCFSFIMPPAMADILDIWAVDSQIASDGSIPVDFLLPTGIYIQLEVPREATISYIKQMLWKQVHNYPMFNLLMDIDSYMFACVNQTAVYEELEDETRRLCDVRPFLPVLKLVTRSCDPGEKLDSKIGVLIGKGLHEFDSLKDPEVNEFRRKMRKFSEEKILSLVGLSWMDWLKQTYPPEHEPSIPENLEDKLYGGKLIVAVHFENCQDVFSFQVSPNMNPIKVNELAIQKRLTIHGKEDEVSPYDYVLQVSGRVEYVFGDHPLIQFQYIRNCVMNRALPHFILVECCKIKKMYEQEMIAIEAAINRNSSNLPLPLPPKKTRIISHVWENNNPFQIVLVKGNKLNTEETVKVHVRAGLFHGTELLCKTIVSSEVSGKNDHIWNEPLEFDINICDLPRMARLCFAVYAVLDKVKTKKSTKTINPSKYQTIRKAGKVHYPVAWVNTMVFDFKGQLRTGDIILHSWSSFPDELEEMLNPMGTVQTNPYTENATALHVKFPENKKQPYYYPPFDKIIEKAAEIASSDSANVSSRGGKKFLPVLKEILDRDPLSQLCENEMDLIWTLRQDCREIFPQSLPKLLLSIKWNKLEDVAQLQALLQIWPKLPPREALELLDFNYPDQYVREYAVGCLRQMSDEELSQYLLQLVQVLKYEPFLDCALSRFLLERALGNRRIGQFLFWHLRSEVHIPAVSVQFGVILEAYCRGSVGHMKVLSKQVEALNKLKTLNSLIKLNAVKLNRAKGKEAMHTCLKQSAYREALSDLQSPLNPCVILSELYVEKCKYMDSKMKPLWLVYNNKVFGEDSVGVIFKNGDDLRQDMLTLQMLRLMDLLWKEAGLDLRMLPYGCLATGDRSGLIEVVSTSETIADIQLNSSNVAAAAAFNKDALLNWLKEYNSGDDLDRAIEEFTLSCAGYCVASYVLGIGDRHSDNIMVKKTGQLFHIDFGHILGNFKSKFGIKRERVPFILTYDFIHVIQQGKTGNTEKFGRFRQCCEDAYLILRRHGNLFITLFALMLTAGLPELTSVKDIQYLKDSLALGKSEEEALKQFKQKFDEALRESWTTKVNWMAHTVRKDYRS
notes: GST-His6-p110β+myc-p85α; with p85α (PIK3R1)
On to B1, for which the Km (commonly the concentration of substrate that gives half-maximal velocity) worked out at 507.5 ± 66.3 µM and the maximal velocity (Vmax) (in general, the rate approached at saturating substrate) worked out at 1.13 µmol/min/mg.

B2: p110β^E1051K (Homo sapiens; E1051K) (protein)
chain: MCFSFIMPPAMADILDIWAVDSQIASDGSIPVDFLLPTGIYIQLEVPREATISYIKQMLWKQVHNYPMFNLLMDIDSYMFACVNQTAVYEELEDETRRLCDVRPFLPVLKLVTRSCDPGEKLDSKIGVLIGKGLHEFDSLKDPEVNEFRRKMRKFSEEKILSLVGLSWMDWLKQTYPPEHEPSIPENLEDKLYGGKLIVAVHFENCQDVFSFQVSPNMNPIKVNELAIQKRLTIHGKEDEVSPYDYVLQVSGRVEYVFGDHPLIQFQYIRNCVMNRALPHFILVECCKIKKMYEQEMIAIEAAINRNSSNLPLPLPPKKTRIISHVWENNNPFQIVLVKGNKLNTEETVKVHVRAGLFHGTELLCKTIVSSEVSGKNDHIWNEPLEFDINICDLPRMARLCFAVYAVLDKVKTKKSTKTINPSKYQTIRKAGKVHYPVAWVNTMVFDFKGQLRTGDIILHSWSSFPDELEEMLNPMGTVQTNPYTENATALHVKFPENKKQPYYYPPFDKIIEKAAEIASSDSANVSSRGGKKFLPVLKEILDRDPLSQLCENEMDLIWTLRQDCREIFPQSLPKLLLSIKWNKLEDVAQLQALLQIWPKLPPREALELLDFNYPDQYVREYAVGCLRQMSDEELSQYLLQLVQVLKYEPFLDCALSRFLLERALGNRRIGQFLFWHLRSEVHIPAVSVQFGVILEAYCRGSVGHMKVLSKQVEALNKLKTLNSLIKLNAVKLNRAKGKEAMHTCLKQSAYREALSDLQSPLNPCVILSELYVEKCKYMDSKMKPLWLVYNNKVFGEDSVGVIFKNGDDLRQDMLTLQMLRLMDLLWKEAGLDLRMLPYGCLATGDRSGLIEVVSTSETIADIQLNSSNVAAAAAFNKDALLNWLKEYNSGDDLDRAIEEFTLSCAGYCVASYVLGIGDRHSDNIMVKKTGQLFHIDFGHILGNFKSKFGIKRERVPFILTYDFIHVIQQGKTGNTEKFGRFRQCCEDAYLILRRHGNLFITLFALMLTAGLPELTSVKDIQYLKDSLALGKSEEEALKQFKQKFDEALRKSWTTKVNWMAHTVRKDYRS
notes: as for B1
Turning to B2, the Km was 314.3 ± 36.8 µM and the Vmax amounted to 1.4 µmol/min/mg.

Values taken from publication PMC5740215, “Functional characterization of a novel somatic oncogenic mutation of PIK3CB” (Signal Transduction and Targeted Therapy, 2017).
